Laboratory results reported in patent US6515110.

Legend:
[1] = target: TAG-72 antigen on a human breast carcinoma extract (human); assay: competition ELISA, competitor biotin-CC49 IgG, human breast carcinoma extract
[2] = target: TAG-72 antigen on a human breast carcinoma extract (human); assay: competition RIA, competitor 125I-CC49 IgG, human breast carcinoma extract

“CC49/4-4-20 heterodimer Fv (fraction 5) (bispecific antibody)” gave a fold higher protein concentration needed to displace the IgG (against CC49/212 single-chain Fv) [1] of 200 fold.

“CC49/212 single-chain antigen-binding protein (monomer) (scFv)” was tested, and the fold higher protein concentration needed to displace the IgG (against CC49 IgG and bivalent CC49/212) [2] was 10 fold.
